Laboratory results from US20160264649A1.

How the values were obtained:
Experiment in all cases: cell-based or functional assay
[1] = biological target: HIV-1 Env of isolate 92UG001 (subtype D) (HIV-1)
[2] = biological target: HIV-1 Env of isolate 92UG005 (subtype D) (HIV-1)
[3] = biological target: HIV-1 Env of isolate 92UG024 (subtype D) (HIV-1)
[4] = biological target: HIV-1 Env of isolate 92UG046 (subtype D) (HIV-1)
[5] = biological target: HIV-1 Env of isolate 92UG114 (subtype D) (HIV-1)
[6] = biological target: HIV-1 Env of isolate 98CN006 (subtype CRF08_BC) (HIV-1)
[7] = biological target: HIV-1 Env of isolate 98CN009 (subtype CRF07_BC) (HIV-1)
[8] = biological target: HIV-1 Env of isolate MGRM-D-001 (subtype D) (HIV-1)
[9] = biological target: HIV-1 Env of isolate MGRM-D-002 (subtype D) (HIV-1)
[10] = biological target: HIV-1 Env of isolate MGRM-D-003 (subtype D) (HIV-1)
[11] = biological target: HIV-1 Env of isolate MGRM-D-004 (subtype D) (HIV-1)
[12] = biological target: HIV-1 Env of isolate MGRM-D-005 (subtype D) (HIV-1)
[13] = biological target: HIV-1 Env of isolate MGRM-D-008 (subtype D) (HIV-1)
[14] = biological target: HIV-1 Env of isolate MGRM-D-011 (subtype D) (HIV-1)
[15] = biological target: HIV-1 Env of isolate MGRM-D-012 (subtype D) (HIV-1)
[16] = biological target: HIV-1 Env of isolate MGRM-D-013 (subtype D) (HIV-1)
[17] = biological target: HIV-1 Env of isolate MGRM-D-014 (subtype D) (HIV-1)
[18] = biological target: HIV-1 Env of isolate MGRM-D-016 (subtype D) (HIV-1)
[19] = biological target: HIV-1 Env of isolate MGRM-D-018 (subtype D) (HIV-1)
[20] = biological target: HIV-1 Env of isolate MGRM-D-019 (subtype D) (HIV-1)
[21] = biological target: HIV-1 Env of isolate MGRM-D-020 (subtype D) (HIV-1)
[22] = biological target: HIV-1 Env of isolate MGRM-D-021 (subtype D) (HIV-1)
[23] = biological target: HIV-1 Env of isolate MGRM-D-022 (subtype D) (HIV-1)
[24] = biological target: HIV-1 Env of isolate MGRM-D-024 (subtype D) (HIV-1)
[25] = biological target: HIV-1 Env of isolate MGRM-D-026 (subtype D) (HIV-1)
[26] = biological target: HIV-1 Env of isolate MGRM-D-028 (subtype D) (HIV-1)
[27] = biological target: HIV-1 Env of isolate MGRM-D-029 (subtype D) (HIV-1)
[28] = biological target: HIV-1 Env of isolate MGRM-F1-004 (subtype F) (HIV-1)
[29] = biological target: HIV-1 Env of isolate MGRM-F1-006 (subtype F) (HIV-1)
[30] = biological target: HIV-1 Env of isolate MGRM-F1-008 (subtype F) (HIV-1)
[31] = biological target: HIV-1 Env of isolate MGRM-F1-010 (subtype F) (HIV-1)
[32] = biological target: HIV-1 Env of isolate MGRM-F1-012 (subtype F) (HIV-1)
[33] = biological target: HIV-1 Env of isolate MGRM-F1-013 (subtype F) (HIV-1)
[34] = biological target: HIV-1 Env of isolate MGRM-F1-014 (subtype F) (HIV-1)
[35] = biological target: HIV-1 Env of isolate MGRM-F1-015 (subtype F) (HIV-1)
[36] = biological target: HIV-1 Env of isolate MGRM-F1-016 (subtype F) (HIV-1)
[37] = biological target: HIV-1 Env of isolate MGRM-F1-017 (subtype F) (HIV-1)
[38] = biological target: HIV-1 Env of isolate MGRM-F1-018 (subtype F) (HIV-1)
[39] = biological target: HIV-1 Env of isolate MGRM-F1-020 (subtype F) (HIV-1)
[40] = biological target: HIV-1 Env of isolate MGRM-F1-021 (subtype F) (HIV-1)
[41] = biological target: HIV-1 Env of isolate MGRM-F1-022 (subtype F) (HIV-1)
[42] = biological target: HIV-1 Env of isolate MGRM-F1-023 (subtype F) (HIV-1)
[43] = biological target: HIV-1 Env of pseudovirus isolate MGRM-G-001 (subtype G) (HIV-1)
[44] = biological target: HIV-1 Env of pseudovirus isolate MGRM-G-004 (subtype G) (HIV-1)
[45] = biological target: HIV-1 Env of pseudovirus isolate MGRM-G-006 (subtype G) (HIV-1)
[46] = biological target: HIV-1 Env of pseudovirus isolate MGRM-G-009 (subtype G) (HIV-1)
[47] = biological target: HIV-1 Env of pseudovirus isolate MGRM-G-011 (subtype G) (HIV-1)
[48] = biological target: HIV-1 Env of pseudovirus isolate MGRM-G-013 (subtype G) (HIV-1)
[49] = biological target: HIV-1 Env of pseudovirus isolate MGRM-G-014 (subtype G) (HIV-1)
[50] = biological target: HIV-1 Env of pseudovirus isolate MGRM-G-015 (subtype G) (HIV-1)
[51] = biological target: HIV-1 Env of pseudovirus isolate MGRM-G-016 (subtype G) (HIV-1)
[52] = biological target: HIV-1 Env of pseudovirus isolate MGRM-G-017 (subtype G) (HIV-1)
[53] = biological target: HIV-1 Env of pseudovirus isolate MGRM-G-019 (subtype G) (HIV-1)
[54] = biological target: HIV-1 Env of pseudovirus isolate MGRM-G-024 (subtype G) (HIV-1)
[55] = biological target: HIV-1 Env of pseudovirus isolate MGRM-G-025 (subtype G) (HIV-1)
[56] = biological target: HIV-1 Env of pseudovirus isolate MGRM-G-027 (subtype G) (HIV-1)
[57] = biological target: HIV-1 Env of pseudovirus isolate MGRM-G-028 (subtype G) (HIV-1)
[58] = biological target: envelope of aMLV pseudovirus (negative control)

B1: PGT-125 (antibody, V domains shown)
VH: QSQLQESGPRLVEASETLSLTCNVSGESTGACTYFWGWVRQAPGKGLEWIGSLSHCQSFWGSGWTFHNPSLKSRLTISLDTPKNQVFLKLTSLTAADTATYYCARFDGEVLVYNHWPKPAWVDLWGRGIPVTVSS
VL: QSALTQPPSASGSPGQSITISCNGTATNFVSWYQQFPDKAPKLIIFGVDKRPPGVPDRFSGSRSGTTASLTVSRLQTDDEAVYYCGSLVGNWDVIFGGGTTLTVL
Binder B1 has an IC50 (neutralization) [1] greater than 50 µg/mL, an IC50 (neutralization) [2] greater than 50 µg/mL and an IC50 (neutralization) [3] greater than 50 µg/mL. It also gave an IC50 (neutralization) [4] greater than 50 µg/mL, an IC50 (neutralization) [5] of 0.349 µg/mL and an IC50 (neutralization) [6] of 0.201 µg/mL. For the same binder, the IC50 (neutralization) [7] was 0.03 µg/mL, the IC50 (neutralization) [8] was 2.84 µg/mL and the IC50 (neutralization) [9] was 0.118 µg/mL. For the same binder, the IC50 (neutralization) [10] was 0.065 µg/mL, the IC50 (neutralization) [11] was 0.371 µg/mL and the IC50 (neutralization) [12] was greater than 50 µg/mL. It also gave an IC50 (neutralization) [13] greater than 50 µg/mL, an IC50 (neutralization) [14] of 0.008 µg/mL and an IC50 (neutralization) [15] greater than 50 µg/mL. The IC50 (neutralization) [16] was greater than 50 µg/mL, the IC50 (neutralization) [17] was 0.12 µg/mL and the IC50 (neutralization) [18] was greater than 50 µg/mL. It also gave an IC50 (neutralization) [19] of 0.049 µg/mL, an IC50 (neutralization) [20] greater than 50 µg/mL and an IC50 (neutralization) [21] of 0.015 µg/mL. It also gave an IC50 (neutralization) [22] of 0.04 µg/mL, an IC50 (neutralization) [23] greater than 50 µg/mL and an IC50 (neutralization) [24] greater than 50 µg/mL. For the same binder, the IC50 (neutralization) [25] was greater than 50 µg/mL, the IC50 (neutralization) [26] was greater than 50 µg/mL and the IC50 (neutralization) [27] was greater than 50 µg/mL. The IC50 (neutralization) [28] was 0.035 µg/mL, the IC50 (neutralization) [29] was 0.361 µg/mL and the IC50 (neutralization) [30] was greater than 50 µg/mL. It also gave an IC50 (neutralization) [31] greater than 50 µg/mL, an IC50 (neutralization) [32] greater than 50 µg/mL and an IC50 (neutralization) [33] greater than 50 µg/mL. The IC50 (neutralization) [34] was greater than 50 µg/mL, the IC50 (neutralization) [35] was greater than 50 µg/mL and the IC50 (neutralization) [36] was greater than 50 µg/mL. It also gave an IC50 (neutralization) [37] greater than 50 µg/mL, an IC50 (neutralization) [38] greater than 50 µg/mL and an IC50 (neutralization) [39] greater than 50 µg/mL. The IC50 (neutralization) [40] was greater than 50 µg/mL, the IC50 (neutralization) [41] was greater than 50 µg/mL and the IC50 (neutralization) [42] was 0.012 µg/mL. For the same binder, the IC50 [43] was 0.033 µg/mL, the IC50 [44] was greater than 50 µg/mL and the IC50 [45] was greater than 50 µg/mL. The IC50 [46] was greater than 50 µg/mL, the IC50 [47] was greater than 50 µg/mL and the IC50 [48] was greater than 50 µg/mL. For the same binder, the IC50 [49] was 0.007 µg/mL, the IC50 [50] was greater than 50 µg/mL and the IC50 [51] was greater than 50 µg/mL. The IC50 [52] was greater than 50 µg/mL, the IC50 [53] was greater than 50 µg/mL and the IC50 [54] was greater than 50 µg/mL. For the same binder, the IC50 [55] was greater than 50 µg/mL, the IC50 [56] was 34.4 µg/mL and the IC50 [57] was 0.012 µg/mL. It also gave an IC50 [58] greater than 50 µg/mL.

B2: PGT-123 (antibody, V domains shown)
VH: QLHLQESGPGLVKPPETLSLTCSVSGASINDAYWSWIRQSPGKRPEWVGYVHHSGDTNYNPSLKRRVTFSLDTAKNEVSLKLVDLTAADSATYFCARALHGKRIYGIVALGELFTYFYMDVWGKGTAVTVSS
VL: SSMSVSPGETAKISCGKESIGSRAVQWYQQKPGQPPSLIIYNNQDRPAGVPERFSASPDFRPGTTATLTITNVDAEDEADYYCHIYDARGGTNWVFDRGTTLTVL
For B2, the IC50 (neutralization) [1] was greater than 50 µg/mL, the IC50 (neutralization) [2] was 9.79 µg/mL and the IC50 (neutralization) [3] was greater than 50 µg/mL. The IC50 (neutralization) [4] was greater than 50 µg/mL, the IC50 (neutralization) [5] was 0.005 µg/mL and the IC50 (neutralization) [6] was 0.008 µg/mL. For the same binder, the IC50 (neutralization) [7] was 0.007 µg/mL, the IC50 (neutralization) [8] was 0.147 µg/mL and the IC50 (neutralization) [9] was 0.012 µg/mL. The IC50 (neutralization) [10] was 3.74 µg/mL, the IC50 (neutralization) [11] was greater than 50 µg/mL and the IC50 (neutralization) [12] was greater than 50 µg/mL. For the same binder, the IC50 (neutralization) [13] was greater than 50 µg/mL, the IC50 (neutralization) [14] was 0.012 µg/mL and the IC50 (neutralization) [15] was greater than 50 µg/mL. The IC50 (neutralization) [16] was greater than 50 µg/mL, the IC50 (neutralization) [17] was 0.009 µg/mL and the IC50 (neutralization) [18] was greater than 50 µg/mL. It also gave an IC50 (neutralization) [19] of 0.007 µg/mL, an IC50 (neutralization) [20] greater than 50 µg/mL and an IC50 (neutralization) [21] of 0.018 µg/mL. For the same binder, the IC50 (neutralization) [22] was 11.1 µg/mL, the IC50 (neutralization) [23] was greater than 50 µg/mL and the IC50 (neutralization) [24] was 0.023 µg/mL. For the same binder, the IC50 (neutralization) [25] was greater than 50 µg/mL, the IC50 (neutralization) [26] was 0.132 µg/mL and the IC50 (neutralization) [27] was greater than 50 µg/mL. It also gave an IC50 (neutralization) [28] of 1.78 µg/mL, an IC50 (neutralization) [29] of 6.89 µg/mL and an IC50 (neutralization) [30] greater than 50 µg/mL. The IC50 (neutralization) [31] was 0.016 µg/mL, the IC50 (neutralization) [32] was 22.2 µg/mL and the IC50 (neutralization) [33] was 0.08 µg/mL. It also gave an IC50 (neutralization) [34] of 0.111 µg/mL, an IC50 (neutralization) [35] greater than 50 µg/mL and an IC50 (neutralization) [36] of 4.95 µg/mL. For the same binder, the IC50 (neutralization) [37] was greater than 50 µg/mL, the IC50 (neutralization) [38] was 0.054 µg/mL and the IC50 (neutralization) [39] was 0.051 µg/mL. For the same binder, the IC50 (neutralization) [40] was 0.307 µg/mL, the IC50 (neutralization) [41] was 0.075 µg/mL and the IC50 (neutralization) [42] was 0.053 µg/mL. For the same binder, the IC50 [43] was 0.009 µg/mL, the IC50 [44] was 0.181 µg/mL and the IC50 [45] was greater than 50 µg/mL. It also gave an IC50 [46] of 33.5 µg/mL, an IC50 [47] of 14.9 µg/mL and an IC50 [48] of 3.97 µg/mL. The IC50 [49] was 0.005 µg/mL, the IC50 [50] was greater than 50 µg/mL and the IC50 [51] was greater than 50 µg/mL. It also gave an IC50 [52] of 0.026 µg/mL, an IC50 [53] of 0.008 µg/mL and an IC50 [54] of 0.032 µg/mL. It also gave an IC50 [55] of 0.046 µg/mL, an IC50 [56] of 0.182 µg/mL and an IC50 [57] of 0.008 µg/mL. The IC50 [58] was greater than 50 µg/mL.
